Among the data in publication PMC3863769 are Kd, koff and kon values, retold here.

The target in the test is mPVR-Ig (extracellular portion of mouse PVR fused to the Fc portion of human IgG1) (mouse). The test is described as follows: SPR.

B1: mDNAM1-Ig (extracellular portion of mouse DNAM1 fused to the Fc portion of human IgG1) (Fc fusion)
chain: EETLWDTTVRLSETMTLECVYPLTHNLTQVEWTKNTGTKTVSIAVYNPNHNMHIESNYLHRVHFLNSTVGFRNMSLSFYNASEADIGIYSCLFHAFPNGPWEKKIKVVWSDSFEIAAPSDSYLSAEPGQDVTLTCQLPRTWPVQQVIWEKVQPHQVDILASCNLSQETRYTSKYLRQTRSNCSQGSMKSILIIPNAMAADSGLYRCRSEAITGKNKSFVIRLIITDGGTNKHFILP
The term Kd denotes the constant that tells how readily two partners part at equilibrium. The low end stands for higher affinity, the high end for lower affinity. For orientation: koff means a measure of how fast the partners let go of each other. High values mean fast dissociation, low ones slow dissociation. Usually kon stands for the second-order rate constant of association. In the case of B1, the dissociation constant Kd is 5.16 µM, the koff was 0.00259 s⁻¹ and the kon is 502 M⁻¹ s⁻¹.
